Results from publication PMC3987992.

Experiments:
Assay in all cases: BLI
CR9114 Fab (human) = molecular target: CR9114 Fab (human)
PGT135 Fab (human) = molecular target: PGT135 Fab (human)
[1] = molecular target: the same heavy chain paired with four different light chains
[2] = molecular target: four VH/VL combinations (the same germline light chain paired with three different heavy chains)
[3] = molecular target: a panel of eight affinity-matured monoclonal antibodies against the same HIV-1 gp120 antigen but with different epitopes

B1: recombinant Protein M TD, residues 74-468 (domain or fragment)
chain: SLSLNDGSYQSEIDLSGGANFREKFRNFANELSEAITNSPKGLDRPVPKTEISGLIKTGDNFITPSFKAGYYDHVASDGSLLSYYQSTEYFNNRVLMPILQTTNGTLMANNRGYDDVFRQVPSFSGWSNTKATTVSTSNNLTYDKWTYFAAKGSPLYDSYPNHFFEDVKTLAIDAKDISALKTTIDSEKPTYLIIRGLSGNGSQLNELQLPESVKKVSLYGDYTGVNVAKQIFANVVELEFYSTSKANSFGFNPLVLGSKTNVIYDLFASKPFTHIDLTQVTLQNSDNSAIDANKLKQAVGDIYNYRRFERQFQGYFAGGYIDKYLVKNVNTNKDSDDDLVYRSLKELNLHLEEAYREGDNTYYRVNENYYPGASIYENERASRDSEFQNEILKR
Kd (CR9114 Fab (human)): 1.9 nM
Kd (PGT135 Fab (human)): 3.7 nM
Kd [1]: 1.8 to 2.3 nM
Kd [2]: 2.1 to 4.8 nM
Kd [3]: 0.7 to 3.8 nM
